According to the supplement of paper PMC12042874:
± gives the uncertainty stated by the source.

Experiment: amyloid nucleation score (Sup35N fusion, yeast selection) (log enrichment); library NNK2; higher = more nucleation; inactive = no reads after selection
Method in brief: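 Sup35N fusions to peptides of 20 random codons were expressed in psi-negative yeast, induced 24 hours with 100 μM copper sulfate, and grown 7 days at 30°C on medium lacking adenine and uracil. Input and output plasmid inserts were sequenced by Illumina. The nucleation score is the DiMSum log enrichment of output over input reads, centred on the mode score of non-aggregating sequences. Sequences with under 100 input reads were excluded.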

| Substance | amyloid nucleation score |
| --- | --- |
| NNSHPRNKLSWIVRLCVKLI | inactive |
| NNSWTDLRCVIYMSITGEPH | 8.633 ± 0.044 |
| NNVPCEKHRHASMYINAA | -0.081 ± 1.1 |
| NPALNRLMDGVNRFPLKCYV | -0.338 ± 0.23 |
| NPELRRGWFTWYPVGPGMKQ | 0.175 ± 0.54 |
| NPETQYASLGRS | -0.306 ± 0.38 |
| NPFYYTGLTIPCFVYHRIKS | -0.508 ± 0.31 |
| NPHGMLSTRSGSVFMPTIDT | -0.742 ± 1 |
| NPINRYCVAHEKLFRNVRSV | 1.87 ± 0.29 |
| NPRFLDRCYLYYPGSASRVA | inactive |
| NPVMTA | -0.314 ± 0.37 |
| NQGLRWLTDRDILRIVEVGM | 0.027 ± 0.65 |
| NQLVWSLNNDLGMENVGGRV | 1.46 ± 0.44 |
| NQRHVIPNSIVLWWGELDLF | 0.465 ± 0.8 |
| NQVQCKCSYKVVEVG | 0.408 ± 0.2 |
| NQWDPMFDRIPTMAALAGPG | 3.4 ± 0.1 |
| NRACFGYEDKLRAMLHLYRS | 0.201 ± 0.45 |
| NRHRWLYLRMRLYRYLEGVR | 1.18 ± 0.47 |
| NRIYVQNRPWSIPENVELTG | -0.821 ± 0.78 |
| NRTGEYLYRRWVQSGSGGKG | 0.553 ± 0.65 |
| NRVGSSGSRYALHRVSSS | 4.846 ± 0.045 |
| NRVLVLAVGHEKFIAKMRLT | 1.51 ± 0.46 |
| NSESVICVLQGGFIRACV | -0.551 ± 0.45 |
| NSFTLKCSKGVGYKALHLGT | 2.9 ± 0.097 |
| NSGARSTSLVNVWVLYLLDR | 6.414 ± 0.055 |

| Substance | amyloid nucleation score |
| --- | --- |
| NSIIGCYRGFC | 4.63 ± 0.092 |
| NSKKWSQGIGTYSDRAFYVF | inactive |
| NSKLPAEFLFFQYECMESPR | -0.758 ± 0.79 |
| NSKYPGVLYCFYRGFGRRVY | inactive |
| NSLVLPDLAYLGCKMNLNFS | 3.94 ± 0.074 |
| NSLYIFMVKYP | 3.96 ± 0.049 |
| NSMILDKNRDSTNFVSCFSY | -1.6 ± 0.49 |
| NSMPATIYFMRSPDIGFSV | 2.81 ± 0.16 |
| NSMSDLFSFSY | inactive |
| NSNLNYPECWEEWTLNHFTD | inactive |
| NSREALVKVGNECP | inactive |
| NSSTVGMIAF | -0.317 ± 0.22 |
| NSTCDMLVSQVVAAVNGF | -0.715 ± 0.49 |
| NSTDSSFGKARYFLSNSYWV | inactive |
| NSVCSTLKHLSNLGSIDIQH | -0.363 ± 1.1 |
| NSVCYGP | 0.899 ± 0.47 |
| NSVDTTCAL | 1.04 ± 0.41 |
| NSYILKDFNCEPGVNMDWQN | inactive |
| NTKYRRFFFNTVRLLHM | -0.28 ± 0.79 |
| NTQDFGLCYIFFLQDRCN | -0.117 ± 0.49 |
| NTRCGCWLVSAML | 0.196 ± 0.77 |
| NTRRSFVRVYFNGLGLCGAN | inactive |
| NTSFRGTTTRKSY | -0.233 ± 0.29 |
| NVAGCSWSSQLPRPTP | 1.46 ± 0.61 |
| NVERSFGAVGQVRIEEYARD | 0.266 ± 1 |

| Substance | amyloid nucleation score |
| --- | --- |
| NVLRCINYYLYYTSGCASSS | -0.169 ± 0.42 |
| NVLRFSSTSLYGLAFLAEGS | -0.577 ± 0.3 |
| NVPCGLN | -0.032 ± 1.1 |
| NVRFLMMI | inactive |
| NVRMSGLF | 2.67 ± 0.14 |
| NVSSSLPF | -0.424 ± 0.78 |
| NWCWYHANRLGCFGASCHVV | 4.52 ± 0.071 |
| NWDNSNLVFLYNSGLGNYVS | -0.874 ± 0.78 |
| NWGWFVSLFYGVAAGDHSRT | 0.955 ± 0.37 |
| NWLLRG | 1.26 ± 0.37 |
| NWNLRHRCAGWYCDRRKVLR | 4.28 ± 0.085 |
| NYCVLSFDISGYAFYKEGLG | -0.492 ± 1.1 |
| NYHKWNVDSDFVYKGYGGHC | -0.573 ± 0.48 |
| NYLMWVITSTYWRHGRESWA | 3.03 ± 0.057 |
| NYRMCFTLHSCYLIRSDNLS | inactive |
| PAIHVVDTRVGWRHSMSGYS | 1.72 ± 0.15 |
| PAKERLFRVETGRFRMKGSW | 1.63 ± 0.13 |
| PAMSVHGNSAESTYVIMHYF | -0.494 ± 0.54 |
| PANGS | -0.249 ± 1 |
| PARAKRLTAL | -0.207 ± 0.29 |
| PARMNLYVCIYV | 7.32 ± 0.081 |
| PARTYILYNPDAGMSLKWSS | -1.06 ± 1.1 |
| PAVDRIFSRLCTYSGQFIPQ | 4.66 ± 0.061 |
| PAWATTLLDTSTARLYNMLA | 0.157 ± 0.18 |
| PAYLDPCTSFSVILAMVLLW | 0.697 ± 0.55 |

| Substance | amyloid nucleation score |
| --- | --- |
| PCERPFERFLVLNRFSDSST | 0.183 ± 0.62 |
| PCIFFMRFYFRT | -0.078 ± 0.65 |
| PCIRPLDKVCLIFFTGIFLW | -1.47 ± 0.78 |
| PCQCKV | 4.16 ± 0.072 |
| PCRYSSKSNYTW | -0.507 ± 0.76 |
| PDFKNLSYWLSVDTMPSRWV | inactive |
| PDRSTFRVYSLHWTFCEHRC | 3.74 ± 0.1 |
| PDSGVSDESHLRCLPGVPRI | 0.066 ± 0.28 |
| PEDLLGRWIIFSYVFTIYSI | inactive |
| PEFGTDIPKSRRRKEGCRGG | 0.717 ± 0.23 |
| PEILMSDGIRKLCSVYVFLR | inactive |
| PERCYQTG | -0.251 ± 0.76 |
| PFGHFQLLINSKTGMRSVMT | -0.463 ± 0.37 |
| PFGKPVYLIFPPGMLVIFRA | -0.603 ± 1.1 |
| PFRGYFGVLSYAVFGEAGPV | 4.4 ± 0.067 |
| PFSNMLASAFNFILITCSDL | inactive |
| PFSRLNPRDPLWVEMFVCWQ | 3.48 ± 0.066 |
| PFSWH | 1.38 ± 0.14 |
| PFTSYML | 5.63 ± 0.065 |
| PFYVSRRVCKYAF | -0.301 ± 0.28 |
| PGEECGGLSITIEWGTSSS | 0.211 ± 0.5 |
| PGHLLRILVFSNNYAYQRDI | -0.647 ± 0.42 |
| PGILDNRLGKQGAGLDLRWH | 1.17 ± 0.24 |
| PGLRGGA | -0.398 ± 0.76 |
| PGLTVYFGTVRMKVHCWSYR | 9.779 ± 0.029 |

| Substance | amyloid nucleation score |
| --- | --- |
| PGNNMLFMWYHWGLGCNFLM | -0.059 ± 0.79 |
| PGSKPPWVSYGNPSTMAIGM | -0.472 ± 0.79 |
| PGSLSLIINIKCTTAKDRTL | 2.79 ± 0.13 |
| PGYGPLTMGGS | 1.35 ± 0.24 |
| PGYSSNSCERDLLGRASVWL | -0.593 ± 0.74 |
| PHLASPYHHPCNPQFLFPYL | 0.016 ± 1.1 |
| PHRSPMGANHPERCLVPMLF | -0.134 ± 0.55 |
| PIARN | -0.47 ± 1 |
| PIGINSVKVSNYINLRYCAC | 5.736 ± 0.043 |
| PIGRSCIYHKWE | 1.98 ± 0.18 |
| PILADGLCIFNR | -0.47 ± 0.34 |
| PIRLQIWVWPVPKR | 0.8 ± 0.55 |
| PIRWVGHNKGFQGL | -1.22 ± 0.75 |
| PIVLAK | -0.672 ± 0.79 |
| PIWFQFGVANTSGLNGVLTS | 0.612 ± 0.34 |
| PIYCNQRVDRALTMFTQFRA | -0.121 ± 1.1 |
| PKLPLAESR | -0.11 ± 0.53 |
| PKMRFFPIARSSIRERNVWV | -1.31 ± 0.34 |
| PKNMWGSNNLRGMPVSDVKS | 0.032 ± 0.34 |
| PLCFLVMGHGTRCVCRWNTG | -0.464 ± 0.63 |
| PLLGLRG | 0.102 ± 1.1 |
| PLLRSKKKSALYPA | -0.021 ± 0.63 |
| PLNCLPGNCSAQPRFGAASG | 0.505 ± 0.39 |
| PLVEDLRSIYLVRCSAYLQR | 0.593 ± 0.33 |
| PLVLKCRCLI | -1.32 ± 1.1 |

| Substance | amyloid nucleation score |
| --- | --- |
| PLWPSNSD | -0.331 ± 0.54 |
| PMAPSCLYRIIIMN | 1.51 ± 0.26 |
| PMISKVCHILKRVEPSWGMR | -0.199 ± 1.1 |
| PNALQGSRDVCTLKRLASEA | 0.238 ± 0.57 |
| PNDAN | 0.043 ± 0.28 |
| PQHFGEPTLIMVGKGLGCLR | 0.178 ± 0.77 |
| PQLHSLCT | -0.214 ± 1 |
| PRAHTVNV | -0.249 ± 1.1 |
| PRCLDLLDIFV | 0.072 ± 1.1 |
| PREKLYITMNMADIGSSRHP | 4.86 ± 0.051 |
| PRRECVVRSAVPWYRRSRE | 1.71 ± 0.35 |
| PSDMHSNNLA | -0.774 ± 0.76 |
| PSGNQELLGTMTWIRKVTQS | -0.86 ± 0.34 |
| PSIWSLDGSYFCSADENCKR | inactive |
| PSLWFLCRYGVTSIGLVFTL | -0.159 ± 1.1 |
| PSNNIFSLLFLVLKHFIDMR | inactive |
| PSSISLTVYKSRMGEYWCKG | inactive |
| PSSSVCNINCYSKRSDRSVV | -0.09 ± 0.63 |
| PSVACGERCKPMCKVTLSPC | 1.42 ± 0.33 |
| PSVTRVLSLVILEAPNA | 2.76 ± 0.14 |
| PSWCS | 0.33 ± 0.17 |
| PTGGRLYSV | 0.012 ± 1 |
| PTIMLTGR | 0.208 ± 0.65 |
| PTSCSSRN | -0.055 ± 1.1 |
| PVGVDLWCGSQSNSLNAFLH | inactive |

| Substance | amyloid nucleation score |
| --- | --- |
| PVIIAW | 0.14 ± 1 |
| PVRLPSMWNVDRAFWPDYCQ | inactive |
| PVRSMNPLRRLNESSRFDEE | 1.48 ± 0.61 |
| PWAMDQVTLSMVLPFMWPRL | 0.456 ± 0.39 |
| PWDVGRRR | 0.97 ± 0.55 |
| PWETRSNA | -0.012 ± 0.46 |
| PWHVYFDRNGWPYGSQRVQG | 0.718 ± 0.57 |
| PWNMACFS | inactive |
| PYATNSRRNRNVYLRPHCQI | 1.77 ± 0.12 |
| PYIWYPISECRGSSSFETYA | 0.29 ± 0.74 |
| PYNLVGLGLFSPAGF | -0.849 ± 0.61 |
| PYSVMTFEIT | 0.486 ± 0.33 |
| PYTSS | -0.107 ± 0.41 |
| PYVMCLNDYPSSKDCFQIVS | -0.619 ± 0.27 |
| QARYFFTAARYITVLWKSTF | -0.487 ± 0.56 |
| QCFSLGGWVCFVIDVC | 9.476 ± 0.079 |
| QCLTSRLGSKIVMCKSLDIS | 0.009 ± 0.23 |
| QCVQRHALRVG | 4.31 ± 0.12 |
| QDRGHSVL | inactive |
| QDSFRGLGYFWGPQHETVVM | -1.23 ± 0.48 |
| QDTFYEWCKNVHVLHTRFGV | 0.905 ± 0.47 |
| QDYTDHPGIIFSFRGCSRDT | inactive |
